We go through 3 substances from patent publication US11510992.

For assay [1], the target named is neuraminidase of influenza A/CA/07/2009 (H1N1)pdm (influenza A virus A/CA/07/2009 (H1N1)pdm). Put plainly: cell-based or functional assay.
Assay [2] has as its target neuraminidase of influenza B/Malaysia/2506/2004 (Victoria) (influenza B virus B/Malaysia/2506/2004 (Victoria)). Nature of the assay: cell-based or functional assay.
For assay [3], the target named is neuraminidase of influenza A/HK/1/1968 (H3N2) (influenza A virus A/HK/1/1968 (H3N2)) (UniProt Q91MA2). Put plainly: cell-based or functional assay.
Assay [4] addresses Neuraminidase of influenza B/Washington/02/2019 (Victoria) (influenza B virus B/Washington/02/2019 (Victoria)). Put plainly: cell-based or functional assay.
In assay [5] the target is Neuraminidase of influenza A/Hawaii/70/2019 (H1N1pdm09) (influenza A virus A/Hawaii/70/2019 (H1N1pdm09)). Nature of the assay: cell-based or functional assay.
The target of assay [6] is Neuraminidase of influenza B/Phuket/3073/2013 (Yamagata) (influenza B virus B/Phuket/3073/2013 (Yamagata)). Put plainly: cell-based or functional assay.
Assay [7] deals with Neuraminidase of influenza A/Hong Kong/2671/2019 (H3N2) (influenza A virus A/Hong Kong/2671/2019 (H3N2)). Nature of the assay: cell-based or functional assay.
Assay [8] concerns the target cynomolgus monkey FcγR1/CD64 (cynomolgus monkey).
In assay [9] the target is rat FcγR2B/CD32b (rat) (UniProt Q63203).
In assay [10] the target is rat FcγR2A/CD32a (rat).
In assay [11] the target is human FcγR2A/CD32a (R167) (human) (UniProt P12318).
Assay [12] has as its target mouse FcγR1/CD64 (mouse) (UniProt P26151).
For assay [13], the target named is rat FcγR1/CD64 (rat).
For assay [14], the target named is human FcγR1/CD64 (human) (UniProt P12314).
The target in assay [15] is cynomolgus monkey FcγR2A/CD32a (cynomolgus monkey).
The target of assay [16] is mouse FcγR2B/CD32b (mouse) (UniProt P08101).
Assay [17] deals with rat FcγR3A/CD16a (rat) (UniProt Q6XPU4).
In assay [18] the target is cynomolgus monkey FcγR2B/CD32b (cynomolgus monkey).
The target in assay [19] is cynomolgus monkey FcRn (cynomolgus monkey) (UniProt Q8SPV9). Nature of the assay: pH 5.8.
The target in assay [20] is human FcRn (human) (UniProt P55899). Put plainly: pH 5.8.
Assay [21] has as its target mouse FcRn (mouse) (UniProt Q61559). Put plainly: pH 5.8.
In assay [22] the target is rat FcRn (rat) (UniProt P13599). Put plainly: pH 5.8.
For assay [23], the target named is cynomolgus monkey FcRn (cynomolgus monkey) (UniProt Q8SPV9). Nature of the assay: pH 7.4.
Assay [24] concerns the target mouse FcRn (mouse) (UniProt Q61559). Nature of the assay: pH 7.4.

Sequence of mouse FcRn (mouse) (Q61559 22-297 limits assumed, form in doubt, chain 1 of 2): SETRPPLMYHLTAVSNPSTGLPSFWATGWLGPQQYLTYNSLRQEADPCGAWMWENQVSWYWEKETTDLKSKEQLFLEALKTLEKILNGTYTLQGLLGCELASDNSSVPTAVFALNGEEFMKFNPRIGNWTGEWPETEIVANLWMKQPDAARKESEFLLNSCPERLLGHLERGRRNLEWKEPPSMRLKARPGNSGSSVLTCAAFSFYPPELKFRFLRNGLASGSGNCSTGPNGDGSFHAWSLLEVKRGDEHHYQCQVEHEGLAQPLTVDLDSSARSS
Sequence of mouse FcRn (mouse) (chain, as listed by the source limits assumed, form in doubt, chain 2 of 2): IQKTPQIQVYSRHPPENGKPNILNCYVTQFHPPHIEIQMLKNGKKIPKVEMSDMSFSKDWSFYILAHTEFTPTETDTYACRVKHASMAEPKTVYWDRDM
Sequence of rat FcRn (rat) (P13599 23-298 limits assumed, form in doubt, chain 1 of 2): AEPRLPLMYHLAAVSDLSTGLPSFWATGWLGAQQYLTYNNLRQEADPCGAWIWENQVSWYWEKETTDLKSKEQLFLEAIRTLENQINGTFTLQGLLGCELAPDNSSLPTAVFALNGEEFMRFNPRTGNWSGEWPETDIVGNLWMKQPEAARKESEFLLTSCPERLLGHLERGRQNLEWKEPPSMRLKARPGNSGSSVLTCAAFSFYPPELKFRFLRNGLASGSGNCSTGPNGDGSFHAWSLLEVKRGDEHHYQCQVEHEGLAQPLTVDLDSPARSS
Sequence of rat FcRn (rat) (chain, as listed by the source limits assumed, form in doubt, chain 2 of 2): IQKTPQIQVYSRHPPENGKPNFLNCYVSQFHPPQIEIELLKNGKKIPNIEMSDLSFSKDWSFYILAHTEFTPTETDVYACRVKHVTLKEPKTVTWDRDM
Sequence of mouse FcγR1/CD64 (mouse) (P26151 25-297 limits assumed): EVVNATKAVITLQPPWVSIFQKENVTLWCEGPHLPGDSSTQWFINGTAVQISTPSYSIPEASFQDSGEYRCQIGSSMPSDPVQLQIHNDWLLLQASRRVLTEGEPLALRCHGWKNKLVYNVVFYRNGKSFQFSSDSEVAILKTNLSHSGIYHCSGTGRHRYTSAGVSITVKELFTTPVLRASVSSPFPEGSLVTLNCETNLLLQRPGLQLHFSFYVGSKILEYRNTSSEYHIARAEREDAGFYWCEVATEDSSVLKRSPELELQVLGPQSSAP
Sequence of mouse FcγR2B/CD32b (mouse) (P08101 30-210): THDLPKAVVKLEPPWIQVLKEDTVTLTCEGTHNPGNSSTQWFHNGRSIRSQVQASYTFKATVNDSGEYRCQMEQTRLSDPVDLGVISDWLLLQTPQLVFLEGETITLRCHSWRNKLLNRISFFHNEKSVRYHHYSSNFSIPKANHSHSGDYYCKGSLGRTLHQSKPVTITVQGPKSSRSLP
Sequence of human FcRn (human) (P55899 24-297 limits assumed, form in doubt, chain 1 of 2): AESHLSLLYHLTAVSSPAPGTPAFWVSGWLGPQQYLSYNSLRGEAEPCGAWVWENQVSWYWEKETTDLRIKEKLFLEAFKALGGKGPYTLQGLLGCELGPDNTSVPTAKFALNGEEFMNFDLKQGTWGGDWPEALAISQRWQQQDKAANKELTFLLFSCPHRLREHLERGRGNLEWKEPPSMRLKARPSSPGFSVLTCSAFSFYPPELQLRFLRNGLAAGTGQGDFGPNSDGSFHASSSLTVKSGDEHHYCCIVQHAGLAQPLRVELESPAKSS
Sequence of human FcRn (human) (chain, as listed by the source limits assumed, form in doubt, chain 2 of 2): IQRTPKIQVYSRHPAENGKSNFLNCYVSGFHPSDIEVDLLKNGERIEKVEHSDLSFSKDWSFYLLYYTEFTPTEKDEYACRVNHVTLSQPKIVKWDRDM
Sequence of human FcγR2A/CD32a (R167) (human) (P12318 36-218 H167R): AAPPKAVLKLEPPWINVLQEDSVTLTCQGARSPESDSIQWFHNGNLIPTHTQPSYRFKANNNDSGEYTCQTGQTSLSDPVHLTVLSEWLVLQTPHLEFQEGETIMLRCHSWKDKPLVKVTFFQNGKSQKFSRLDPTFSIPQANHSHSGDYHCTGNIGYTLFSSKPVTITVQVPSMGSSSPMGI
Sequence of rat FcγR2B/CD32b (rat) (Q63203 32-212): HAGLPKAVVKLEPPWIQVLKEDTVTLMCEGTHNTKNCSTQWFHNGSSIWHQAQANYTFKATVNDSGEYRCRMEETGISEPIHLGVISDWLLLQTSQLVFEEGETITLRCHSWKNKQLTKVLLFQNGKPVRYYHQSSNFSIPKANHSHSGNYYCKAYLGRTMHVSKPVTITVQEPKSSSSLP
Sequence of rat FcγR3A/CD16a (rat) (Q6XPU4 21-203 limits assumed): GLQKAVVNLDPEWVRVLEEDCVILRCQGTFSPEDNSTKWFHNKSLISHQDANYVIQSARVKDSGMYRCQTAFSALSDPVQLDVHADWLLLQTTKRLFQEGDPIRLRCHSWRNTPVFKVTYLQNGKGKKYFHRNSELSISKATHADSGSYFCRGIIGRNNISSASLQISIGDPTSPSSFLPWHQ
Sequence of human FcγR1/CD64 (human) (P12314 16-288 limits assumed): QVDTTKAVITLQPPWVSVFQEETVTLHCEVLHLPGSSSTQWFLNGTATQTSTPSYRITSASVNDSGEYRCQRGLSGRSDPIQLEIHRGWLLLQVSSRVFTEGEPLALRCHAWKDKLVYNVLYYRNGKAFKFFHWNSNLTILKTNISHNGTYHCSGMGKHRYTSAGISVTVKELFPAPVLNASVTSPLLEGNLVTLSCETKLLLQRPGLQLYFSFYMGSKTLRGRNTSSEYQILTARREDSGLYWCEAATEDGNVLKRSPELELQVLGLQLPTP

“Fc alone (SEQ ID NO: 73) (from UniProt P0DOX5 203-448)”: in [1], the ADCP (fold induction), reporter cells on MDCK cells, MOI 0 (fold induction) turned out to be 0.98; the ADCP (fold induction), reporter cells on infected MDCK cells, MOI 0.1 (fold induction) worked out at 1.14; the ADCP (fold induction), reporter cells on infected MDCK cells, MOI 0.3 (fold induction) worked out at 1.03; the ADCP (fold induction), reporter cells on infected MDCK cells, MOI 1 (fold induction) is 0.99. Besides, in assay [1], the ADCP (fold induction), reporter cells on infected MDCK cells, MOI 3 (fold induction) was found to be 0.93 and the ADCP (fold induction), reporter cells on infected MDCK cells, MOI 10 (fold induction) was 1.05. Further, in assay [2], the ADCP (fold induction), reporter cells on MDCK cells, MOI 0 (fold induction) stood at 1.07; the ADCP (fold induction), reporter cells on infected MDCK cells, MOI 0.1 (fold induction) came to 0.98; the ADCP (fold induction), reporter cells on infected MDCK cells, MOI 0.3 (fold induction) came out at 0.99; the ADCP (fold induction), reporter cells on infected MDCK cells, MOI 1 (fold induction) came to 1.14. Moreover, in assay [2], the ADCP (fold induction), reporter cells on infected MDCK cells, MOI 3 (fold induction) was 1.11 and the ADCP (fold induction), reporter cells on infected MDCK cells, MOI 10 (fold induction) was determined as 1. Also, in [3], the ADCP (fold induction), reporter cells on MDCK cells, MOI 0 (fold induction) turned out to be 1.02; the ADCP (fold induction), reporter cells on infected MDCK cells, MOI 0.1 (fold induction) is 1.07; the ADCP (fold induction), reporter cells on infected MDCK cells, MOI 0.3 (fold induction) was determined as 1.05; the ADCP (fold induction), reporter cells on infected MDCK cells, MOI 1 (fold induction) was determined as 1.18. Also, in assay [3], the ADCP (fold induction), reporter cells on infected MDCK cells, MOI 3 (fold induction) was determined as 1.01 and the ADCP (fold induction), reporter cells on infected MDCK cells, MOI 10 (fold induction) worked out at 1.06.
As for hIgG1 Fc (from UniProt P01857 84-329), the IC50, enzyme-linked lectin assay (ELLA), fetuin substrate, live virus in [4], in assay [5], in assay [6] and in assay [7] was over 1000 nM throughout.
A word on the EC50: it is the midpoint of the concentration-response curve. Regarding human IgG1 isotype control antibody, the EC50 in assay [8] turned out to be 0.37 nM; in [9], 208 nM; in [10], 1 nM; in [11] it was 144 nM; in [12], 3 nM; in assay [13], 2 nM. Moreover, the EC50 in [14] worked out at 7 nM; in assay [15], 693 nM; in [16], 153 nM; in assay [17], 0.008 nM; in assay [18] it was 1 nM; in assay [19], 28 nM. Also, the EC50 in [20] was 44 nM; in assay [21] it was 5 nM; in assay [22], 13 nM; in assay [23] it was 78 nM; in [24], 40 nM.
